# Results as given in US20160257763A1.
# Biological target: FcRn
# Assay: SPR pH 6.0, Ab captured by goat anti-human IgG, FcRn injected
row,Substance,Kd [µM]
1,T350V_L351Y_F405A_Y407V / T350V_T366L_K392M_T394W (antibody),4.3
2,L351Y_F405A_Y407V / T366L_K392M_T394W (antibody),5

# Now from value to substance:
row,Kd [µM],Substance
1,4.1,Y349C_T350V_F405A_Y407V / T350V_S354C_T366L_K392M_T394W (antibody)
2,5,T350V_L351Y_S400E_F405A_Y407V / T350V_T366L_N390R_K392M_T394W (antibody)
3,3.9,T350V_L351Y_F405A_Y407V / T350V_T366L_K392L_T394W (antibody)
